These results are taken from patent publication US20030224500A1, “Modified MEK1 and MEK2, crystal of a peptide: ligand: cofactor complex containing such modified MEK1 or MEK2, and methods of use thereof” (priority 2001, published 2003).

A value given as a limit tells only on which side of the number the result lay.

Data set [1] relates to colon carcinomas of both mouse and human origin. Particulars: cited from earlier work.
Data set [2] deals with MAPK. The note with it: correlated with efficacy; cited from earlier work.
The subject of data set [3] is glutathione-S-transferase fusion protein of kinase-inactive ERK1 (GSTERK1K71R). Put plainly: Kinase activity of the modified MEK1 peptides, GSTERK1K71R substrate, [γ-32P]ATP. Type of data set: biochemical. Particulars: after Raf activation; 50 ng modified MEK peptide, 10 μM ATP, room temperature 20 minutes; initial experiments. Here is the method:
The modified MEK peptides (50 ng) were assayed in 20 mM HEPES (N-2-hydroxyethyl-piperazine-N′-2-ethanesulfonic acid) pH 7.5, 10 mM MgCl2, […] (ethylene glycol bis(2-aminoethyl ether)-N,N,N′N′-tetraacetic acid), 10 μM ATP, with 5 μCi [γ-^32P] ATP. Appropriate samples had 0.5 units of Raf-1 (UBI) added, and the reaction started with the addition of 1 μg GSTERK1 (K71R). The reactions were incubated at room temperature for 20 minutes, then quenched with 5 μl 6×Laemmli sample buffer. The samples were then resolved by SDS-PAGE, and the phosphoproteins visualized by autoradiography. Radiolabel incorporated into ERK was quantitated by excision of the protein band from the gel and counting in a standard scintillation counter. Initial experiments with the modified MEK1 s generated the following specific activities in units of pmol PO4 min-1 mg-1 after Raf activation: WT: 8380.6, WTsPR: 40.1, C1FL: 773.3, ClsPR: 35.9, C2FL: 537.5, C2sPR: 24.1, C3FL: 441.7 and C3sPR: 26.9.

For data set [4], the target named is T1, glutathione-S-transferase fusion protein of kinase-inactive ERK1 (GSTERK1K71R), P27361.
T1 chain: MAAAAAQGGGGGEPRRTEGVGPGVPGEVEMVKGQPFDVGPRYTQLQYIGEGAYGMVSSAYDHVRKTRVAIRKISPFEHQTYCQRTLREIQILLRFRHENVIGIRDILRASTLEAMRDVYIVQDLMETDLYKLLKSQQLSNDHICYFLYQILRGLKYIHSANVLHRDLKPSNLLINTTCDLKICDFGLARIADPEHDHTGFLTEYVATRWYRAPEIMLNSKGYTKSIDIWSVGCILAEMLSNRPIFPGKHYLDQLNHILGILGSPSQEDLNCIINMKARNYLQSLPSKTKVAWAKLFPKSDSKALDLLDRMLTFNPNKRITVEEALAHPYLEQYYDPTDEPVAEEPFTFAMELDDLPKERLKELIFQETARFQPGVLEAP

With `O=C(NOCC1CC1)c1ccc(F)c(F)c1Nc1ccc(I)cc1Cl` [2-(2-chloro-4-iodo-phenylamino)-N-cyclopropylmethoxy-3,4-difluoro-benzamide], the tumor growth inhibited in data set [1] (mice with colon carcinomas of both mouse and human origin, after treatment with inhibitor) was no more than 80%. Besides, the toxicity entry in data set [1] (wide range of doses, mice) is “no signs of toxicity”. The “levels of MAPK in excised tumors” value in data set [2] is given as “reduction in levels of MAPK”.
Consider “C2FL: NH2-terminally truncated MEK1 having peptide of amino acid residues 62 to 393 of SEQ ID NO: 2”, for which, in data set [3], the specific activities was found to be 537.5 pmol PO4 min-1 mg-1.
In the case of “WT: Wild-type human MEK1, full-length peptide of SEQ ID NO: 2, expressed in E. coli”, the specific activities in data set [3] stood at 8380.6 pmol PO4 min-1 mg-1.
Regarding “C1FL: NH2-terminally truncated MEK1 encoding amino acids 51-393 of SEQ ID NO: 2”, the specific activities in data set [3] was 773.3 pmol PO4 min-1 mg-1.
In the case of “C3FL: NH2-terminally truncated MEK1 having peptide of amino acid residues 42 to 393 of SEQ ID NO: 2”, in data set [3], the specific activities worked out at 441.7 pmol PO4 min-1 mg-1.

B1: MEK1 (wt)(d280-323) (protein)
chain: MPKKKPTPIQLNPAPDGSAVNGTSSAETNLEALQKKLEELELDEQQRKRLEAFLTQKQKVGELKDDDFEKISELGAGNGGVVFKVSHKPSGLVMARKLIHLEIKPAIRNQIIRELQVLHECNSPYIVGFYGAFYSDGEISICMEHMDGGSLDQVLKKAGRIPEQILGKVSIAVIKGLTYLREKHKIMHRDVKPSNILVNSRGEIKLCDFGVSGQLIDSMANSFVGTRSYMSPERLQGTHYSVQSDIWSMGLSLVEMAVGRYPIPPPDAKELELMFGCQVKLPSGVFSLEFQDFVNKCLIKNPAERADLKQLMVHAFIKRSDAEEVDFAGWLCSTIGLNQPSTPTHAAGV
Regarding B1, the “specific activity after Raf activation (32P incorporated into ERK)” value (“specific activity after Raf activation” for short) in data set [4] is listed as “WTsPR: 40.1”. In addition, the specific activities in data set [3] was 40.1 pmol PO4 min-1 mg-1.

B2: MEK1-C2 (d280-323) (protein)
chain: ELKDDDFEKISELGAGNGGVVFKVSHKPSGLVMARKLIHLEIKPAIRNQIIRELQVLHECNSPYIVGFYGAFYSDGEISICMEHMDGGSLDQVLKKAGRIPEQILGKVSIAVIKGLTYLREKHKIMHRDVKPSNILVNSRGEIKLCDFGVSGQLIDSMANSFVGTRSYMSPERLQGTHYSVQSDIWSMGLSLVEMAVGRYPIPPPDAKELELMFGCQVKLPSGVFSLEFQDFVNKCLIKNPAERADLKQLMVHAFIKRSDAEEVDFAGWLCSTIGLNQPSTPTHAAGV
Consider B2, for which the “specific activity after Raf activation” value in data set [4] is on record as “C2sPR: 24.1”. Moreover, the specific activities in data set [3] worked out at 24.1 pmol PO4 min-1 mg-1.

B3: MEK1-C3 (d280-323) (protein)
chain: LDEQQRKRLEAFLTQKQKVGELKDDDFEKISELGAGNGGVVFKVSHKPSGLVMARKLIHLEIKPAIRNQIIRELQVLHECNSPYIVGFYGAFYSDGEISICMEHMDGGSLDQVLKKAGRIPEQILGKVSIAVIKGLTYLREKHKIMHRDVKPSNILVNSRGEIKLCDFGVSGQLIDSMANSFVGTRSYMSPERLQGTHYSVQSDIWSMGLSLVEMAVGRYPIPPPDAKELELMFGCQVKLPSGVFSLEFQDFVNKCLIKNPAERADLKQLMVHAFIKRSDAEEVDFAGWLCSTIGLNQPSTPTHAAGV
As for B3, the “specific activity after Raf activation” value in data set [4] is reported as “C3sPR: 26.9”. Moreover, in data set [3], the specific activities is on record as 26.9 pmol PO4 min-1 mg-1.

B4: MEK1-C1 (d280-323) (protein)
chain: EAFLTQKQKVGELKDDDFEKISELGAGNGGVVFKVSHKPSGLVMARKLIHLEIKPAIRNQIIRELQVLHECNSPYIVGFYGAFYSDGEISICMEHMDGGSLDQVLKKAGRIPEQILGKVSIAVIKGLTYLREKHKIMHRDVKPSNILVNSRGEIKLCDFGVSGQLIDSMANSFVGTRSYMSPERLQGTHYSVQSDIWSMGLSLVEMAVGRYPIPPPDAKELELMFGCQVKLPSGVFSLEFQDFVNKCLIKNPAERADLKQLMVHAFIKRSDAEEVDFAGWLCSTIGLNQPSTPTHAAGV
In the case of B4, the “specific activity after Raf activation” value in data set [4] is recorded as “ClsPR: 35.9”. For the same molecule, the specific activities in data set [3] is given as 35.9 pmol PO4 min-1 mg-1.
